Measurements reported in US20250186614A1, “COMPACT DRUG RESPONSIVE DOMAINS FOR REGULATION OF FUNCTION/ABUNDANCE AND DELIVERY OF POLYPEPTIDE PAYLOADS” (OBSIDIAN THERAPEUTICS, INC., priority 2022, published 2025).

B1: FKBP-064: FKBP13 DRD Q72R, Q84E, A117H, R102L; SEQ ID NO: 20 (protein)
chain: HCPIKSRKGDVLHMHYTGKLEDGTEFDSSLPRNQPFVFSLGTGEVIKGWDQGLLGMCEGEKLKLVIPSELGYGERGHPPKIPGGATLVFEVELLKIER
modifications: Description of sequence: FKBP13-AcGFP-mCherry Fusion; Construct Name: FKBP-064; FKBP13 DRD in Construct : FKBP13 (mutated to match FKBP12 active site - Q72R Q84E A117H) (DRD - R102L)
B2: FKBP-085: FKBP13 trunc1WT DRD Q72R, Q84E, A117H; SEQ ID NO: 35 (protein)
chain: CPIKSRKGDVLHMHYTGKLEDGTEFDSSLPRNQPFVFSLGTGEVIKGWDQGLLGMCEGEKRKLVIPSELGYGERGHPPKIPGGATLVFEVELLKIER
modifications: truncated (trunc1); Description of sequence: FKBP13-AcGFP-mCherry Fusion; Construct Name: FKBP-085; FKBP13 DRD in Construct : FKBP13 trunc1WT (mutated to match FKBP12 active site Q72R Q84E A117H) (DRD - WT)
B3: FKBP-094: FKBP13 DRD Q72R, Q84E, A117H, P107S; SEQ ID NO: 44 (protein)
chain: HCPIKSRKGDVLHMHYTGKLEDGTEFDSSLPRNQPFVFSLGTGEVIKGWDQGLLGMCEGEKRKLVISSELGYGERGHPPKIPGGATLVFEVELLKIER
modifications: Description of sequence: FKBP13-AcGFP-mCherry Fusion; Construct Name: FKBP-094; FKBP13 DRD in Construct : FKBP13 (mutated to match FKBP12 active site Q72R Q84E A117H) (DRD - P107S)
B4: FKBP-095: FKBP13 DRD Q72R, Q84E, A117H, P122S; SEQ ID NO: 45 (protein)
chain: HCPIKSRKGDVLHMHYTGKLEDGTEFDSSLPRNQPFVFSLGTGEVIKGWDQGLLGMCEGEKRKLVIPSELGYGERGHPPKISGGATLVFEVELLKIER
modifications: Description of sequence: FKBP13-AcGFP-mCherry Fusion; Construct Name: FKBP-095; FKBP13 DRD in Construct : FKBP13 (mutated to match FKBP12 active site Q72R Q84E A117H) (DRD - P122S)
B5: FKBP-097: FKBP13 DRD Q72R, Q84E, A117H, E100S; SEQ ID NO: 47 (protein)
chain: HCPIKSRKGDVLHMHYTGKLEDGTEFDSSLPRNQPFVFSLGTGEVIKGWDQGLLGMCEGSKRKLVIPSELGYGERGHPPKIPGGATLVFEVELLKIER
modifications: Description of sequence: FKBP13-AcGFP-mCherry Fusion; Construct Name: FKBP-097; FKBP13 DRD in Construct : FKBP13 (mutated to match FKBP12 active site Q72R Q84E A117H) (DRD - E100S)
B6: FKBP-084: FKBP13 trunc2 DRD Q72R, Q84E, A117H, M54A; SEQ ID NO: 34 (protein)
chain: PIKSRKGDVLHAHYTGKLEDGTEFDSSLPRNQPFVFSLGTGEVIKGWDQGLLGMCEGEKRKLVIPSELGYGERGHPPKIPGGATLVFEVELLKIER
modifications: truncated (trunc2); Description of sequence: FKBP13-AcGFP-mCherry Fusion; Construct Name: FKBP-084; FKBP13 DRD in Construct : FKBP13 trunc2 (mutated to match FKBP12 active site Q72R Q84E A117H) (DRD - M54A)
B7: FKBP-121: FKBP13 DRD Q72R, Q84E, A117W, I136V; SEQ ID NO: 71 (protein)
chain: HCPIKSRKGDVLHMHYTGKLEDGTEFDSSLPRNQPFVFSLGTGEVIKGWDQGLLGMCEGEKRKLVIPSELGYGERGWPPKIPGGATLVFEVELLKVER
modifications: Description of sequence: FKBP13-AcGFP-mCherry Fusion; Construct Name: FKBP-121; FKBP13 DRD in Construct : FKBP13 (mutated to match FKBP12 active site Q72R Q84E A117W) (DRD I136V)
B8: FKBP-122: FKBP13 DRD Q72R, Q84E, A117H, I136V; SEQ ID NO: 72 (protein)
chain: HCPIKSRKGDVLHMHYTGKLEDGTEFDSSLPRNQPFVFSLGTGEVIKGWDQGLLGMCEGEKRKLVIPSELGYGERGHPPKIPGGATLVFEVELLKVER
modifications: Description of sequence: FKBP13-AcGFP-mCherry Fusion; Construct Name: FKBP-122; FKBP13 DRD in Construct : FKBP13 (mutated to match FKBP12 active site Q72R Q84E A117H) (DRD I136V)
B9: FKBP-123: FKBP13 DRD Q72R, Q84E, A117W, G49S; SEQ ID NO: 73 (protein)
chain: HCPIKSRKSDVLHMHYTGKLEDGTEFDSSLPRNQPFVFSLGTGEVIKGWDQGLLGMCEGEKRKLVIPSELGYGERGWPPKIPGGATLVFEVELLKIER
modifications: Description of sequence: FKBP13-AcGFP-mCherry Fusion; Construct Name: FKBP-123; FKBP13 DRD in Construct : FKBP13 (mutated to match FKBP12 active site Q72R Q84E A117W) (DRD G49S)
B10: FKBP-124: FKBP13 DRD Q72R, Q84E, A117H, G49S; SEQ ID NO: 74 (protein)
chain: HCPIKSRKSDVLHMHYTGKLEDGTEFDSSLPRNQPFVFSLGTGEVIKGWDQGLLGMCEGEKRKLVIPSELGYGERGHPPKIPGGATLVFEVELLKIER
modifications: Description of sequence: FKBP13-AcGFP-mCherry Fusion; Construct Name: FKBP-124; FKBP13 DRD in Construct : FKBP13 (mutated to match FKBP12 active site Q72R Q84E A117H) (DRD G49S)
B11: FKBP-125: FKBP13 DRD Q72R, Q84E, A117W, D62S; SEQ ID NO: 75 (protein)
chain: HCPIKSRKGDVLHMHYTGKLESGTEFDSSLPRNQPFVFSLGTGEVIKGWDQGLLGMCEGEKRKLVIPSELGYGERGWPPKIPGGATLVFEVELLKIER
modifications: Description of sequence: FKBP13-AcGFP-mCherry Fusion; Construct Name: FKBP-125; FKBP13 DRD in Construct : FKBP13 (mutated to match FKBP12 active site Q72R Q84E A117W) (DRD D62S)
B12: FKBP-126: FKBP13 DRD Q72R, Q84E, A117H, D62S; SEQ ID NO: 76 (protein)
chain: HCPIKSRKGDVLHMHYTGKLESGTEFDSSLPRNQPFVFSLGTGEVIKGWDQGLLGMCEGEKRKLVIPSELGYGERGHPPKIPGGATLVFEVELLKIER
modifications: Description of sequence: FKBP13-AcGFP-mCherry Fusion; Construct Name: FKBP-126; FKBP13 DRD in Construct : FKBP13 (mutated to match FKBP12 active site Q72R Q84E A117H) (DRD D62S)
B13: FKBP-127: FKBP13 DRD Q72R, Q84E, A117W, F76Q; SEQ ID NO: 77 (protein)
chain: HCPIKSRKGDVLHMHYTGKLEDGTEFDSSLPRNQPQVFSLGTGEVIKGWDQGLLGMCEGEKRKLVIPSELGYGERGWPPKIPGGATLVFEVELLKIER
modifications: Description of sequence: FKBP13-AcGFP-mCherry Fusion; Construct Name: FKBP-127; FKBP13 DRD in Construct : FKBP13 (mutated to match FKBP12 active site Q72R Q84E A117W) (DRD F76Q)
B14: FKBP-128: FKBP13 DRD Q72R, Q84E, A117W, H53L; SEQ ID NO: 78 (protein)
chain: HCPIKSRKGDVLLMHYTGKLEDGTEFDSSLPRNQPFVFSLGTGEVIKGWDQGLLGMCEGEKRKLVIPSELGYGERGWPPKIPGGATLVFEVELLKIER
modifications: Description of sequence: FKBP13-AcGFP-mCherry Fusion; Construct Name: FKBP-128; FKBP13 DRD in Construct : FKBP13 (mutated to match FKBP12 active site Q72R Q84E A117W) (DRD H53L)

test system: Jurkat cells; test: Tacrolimus dose response of FKBP13-AcGFP-mCherry constructs stably transduced into Jurkat cells, GFP MFI by flow cytometry; assay type: cell-based; details: tacrolimus dose response, Jurkat cells stably transduced (FIG. 4); Table 4
Description: The regulation of AcGFP, from FKBP13-AcGFP-mCherry constructs, in Jurkat cells, was also studied. Jurkat Clone E6-1 cells were cultured in standard media (RPMI+GlutaMAX Supplement (Life Technologies, Carlsbad, CA Cat #61870127), Fetal Bovine Serum (FBS) (Life Technologies Cat #10-082-147)). Jurkat cells were transduced with lentivirus produced with each of FKBP-039, FKBP-040, FKBP-041, FKBP-042, FKBP-043, FKBP-044, or FKBP-045 constructs. Jurkat cells were transduced until they were 10-25% positive, as determined on day 5 post-transduction, by using mCherry as a transduction marker. […] The Geometric Mean Fluorescent Intensity (MFI) of GFP expression in mCherry+ cells was plotted and dose response curve fits were performed using Prism Software (San Diego, CA).
FKBP-091 was used as a comparative construct.
FIGS. 22-38 show the results of characterization of FKBP-160-292. […] FKBP-091 and FKBP-117 was used as a comparative control for FKBP-160-FKBP-255. FKBP-195 was used as a comparative control for FKBP-256-FKBP-275. FKBP-117, FPBP-195 and FKBP-251 were used as a comparative control for FKBP-276-FKBP-292.
FKBP mutants were cloned in a manner to make a fusion protein with AcGFP in order to assess FKBP mutant regulation by using AcGFP expression as a readout. […] Further iterative FKBP mutants (FKBP-256-FKBP-292) were constructed from these initial combinatorial mutants to see if we could further improve FKBP DRD properties.

Molecule	Fold Change
B1	21.6

same assay, conditions: tacrolimus dose response, Jurkat cells stably transduced (FIG. 10); Table 5

Molecule	Fold Change
B2	16.09
B3	13.5
B4	31.4
B5	36.75
B6	12.42

same assay, conditions: tacrolimus, Jurkat cells stably transduced; Table 6

Molecule	Fold Change
B7	28.35
B8	22.51
B9	48.38
B10	40.13
B11	29.07
B12	25.70
B13	10.25
B14	31.75
